Assay results from patent US20260232769A1 (WUXI BIOLOGICS IRELAND, published 2026).
Where a chain is given by its changes, count along the chain named.

T1: IL-2Rβ/γc complex (intermediate affinity receptor) on primary human CD8+ T cells (human, UniProt P14784 27-551; P31785 23-369)
T1 sequence (looked up) 1: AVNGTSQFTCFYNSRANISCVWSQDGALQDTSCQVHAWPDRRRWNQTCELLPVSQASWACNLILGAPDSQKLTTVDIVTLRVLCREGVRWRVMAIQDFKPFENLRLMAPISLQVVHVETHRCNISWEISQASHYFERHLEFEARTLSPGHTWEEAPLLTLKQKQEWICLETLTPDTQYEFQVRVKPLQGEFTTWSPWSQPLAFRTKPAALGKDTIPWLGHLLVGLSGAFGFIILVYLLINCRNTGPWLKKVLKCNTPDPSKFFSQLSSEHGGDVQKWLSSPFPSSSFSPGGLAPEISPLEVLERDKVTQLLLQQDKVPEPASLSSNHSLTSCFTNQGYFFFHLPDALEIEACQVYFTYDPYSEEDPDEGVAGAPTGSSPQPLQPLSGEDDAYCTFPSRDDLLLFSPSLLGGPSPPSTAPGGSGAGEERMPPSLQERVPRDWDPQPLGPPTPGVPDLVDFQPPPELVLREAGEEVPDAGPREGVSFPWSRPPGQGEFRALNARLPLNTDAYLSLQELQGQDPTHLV
T1 sequence (looked up) 2: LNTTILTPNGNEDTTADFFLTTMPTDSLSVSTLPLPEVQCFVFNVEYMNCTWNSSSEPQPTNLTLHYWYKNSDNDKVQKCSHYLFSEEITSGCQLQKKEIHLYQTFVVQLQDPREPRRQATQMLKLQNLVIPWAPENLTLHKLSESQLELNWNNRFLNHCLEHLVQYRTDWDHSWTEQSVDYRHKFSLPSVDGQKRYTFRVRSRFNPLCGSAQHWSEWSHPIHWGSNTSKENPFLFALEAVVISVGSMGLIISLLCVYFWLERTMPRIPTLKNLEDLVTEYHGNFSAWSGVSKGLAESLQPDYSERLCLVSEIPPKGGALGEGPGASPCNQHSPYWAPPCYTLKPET

B1: W3XX115-T2U0.E44-44.uIgG4V322 (Fc fusion)
chain: APTSSSTKKTQLQLEHLLLDLQMILNGINNYKNPKLTRMLTFKFYMPKKATGLKHLQCLEEELKPLEEVLNLAQSKNFHLRPRDLISNINVIVLELKGSETTFMCEYADETATIVEFLNRWITFCQSIIESKYGPPCPPCPAPEAAGGPSVFLFPPKPKDTLMISRTPEVTCVVVDVSQEDPEVQFNWYVDGVEVHNAKTKPREEQFNSTYRVVSVLTVLHQDWLNGKEYKCKVSNKGLPSSIEKTISKAKGQPREPQVYTLPPCQEEMTKNQVSLWCLVKGFYPSDIAVEWESNGQPENNYKTTPPVLDSDGSFFLYSRLTVDKSRWQEGNVFSCSVMHEALHNHYTQKSLSLSLG
heavy: EIQLQQSGPELVKPGASVKVSCKASGYSFTDYNMYWVKQSHGESLEWIGYIDPYNGGTRYNQKFKGKATLTVDKSSSTAFMHLNSLTSEDSAVYYCARNGHWDGAWFAYWGQGTLVTVSAASTKGPSVFPLAPCSRSTSESTAALGCLVKDYFPEPVTVSWNSGALTSGVHTFPAVLQSSGLYSLSSVVTVPSSSLGTKTYTCNVDHKPSNTKVDKRVESKYGPPCPPCPAPEAAGGPSVFLFPPKPKDTLMISRTPEVTCVVVDVSQEDPEVQFNWYVDGVEVHNAKTKPREEQFNSTYRVVSVLTVLHQDWLNGKEYKCKVSNKGLPSSIEKTISKAKGQPREPQVCTLPPSQEEMTKNQVSLSCAVKGFYPSDIAVEWESNGQPENNYKTTPPVLDSDGSFFLVSRLTVDKSRWQEGNVFSCSVMHEALHNHYTQKSLSLSLG
light: DIQMNQSPSSLSASLGDTITITCHASQNINVWLSWYQQKPGNIPKLLIYKASNLHTGVPSRFSGSRSGTGFTLTISSLQPEDIATYYCHQGQSYPFTFGSGTKLEIKRTVAAPSVFIFPPSDEQLKSGTASVVCLLNNFYPREAKVQWKVDNALQSGNSQESVTEQDSKDSTYSLSSTLTLSKADYEKHKVYACEVTHQGLSSPVTKSFNRGEC
B2: W3XX115-T2U0.E44-46.uIgG4V322 (Fc fusion)
chain: B1 chain with G52E, F78G
heavy: B1 heavy
light: B1 light
B3: W3XX115-T2U0.E44-40.uIgG4V322 (Fc fusion)
chain: B1 chain with G52E, E110R
heavy: B1 heavy
light: B1 light
B4: W3XX115-T2U0.E44-45.uIgG4V322 (Fc fusion)
chain: B1 chain with G52E, K76R
heavy: B1 heavy
light: B1 light
B5: W3XX115-T2U0.E44-6.uIgG4V322 (Fc fusion)
chain: B1 chain with G52E
heavy: B1 heavy
light: B1 light
B6: W3XX115-T2U0.E44-47.uIgG4V322 (Fc fusion)
chain: B1 chain with G52E, P82Y
heavy: B1 heavy
light: B1 light
B7: W3XX115-T2U0.E44-43.uIgG4V322 (Fc fusion)
chain: B1 chain with K32D, G52E
heavy: B1 heavy
light: B1 light

Molecular target: T1, IL-2Rβ/γc complex (intermediate …)
Assay: cell-based or functional assay

Row | Binder | Potency reduction, pSTAT5, human primary CD8+ T [fold] | pSTAT5 EC50, human primary CD8+ T [nM]
1 | B1 | 11.3 | 86.2
2 | B2 | 7.6 | 58.4
3 | B3 | 36.9 | 282
4 | B4 | 31.4 | 240
5 | B5 | 18.3 | 145
6 | B6 | 27.6 | 211
7 | B7 | 17.6 | 135
